Numbering of substitutions follows the chain as printed.
Key:
[1] = biological target: T1, human Nectin-4-eGFP on T24 cells (clone 3) (human, UniProt Q96NY8 32-510); experiment: cell-based or functional assay
T1 sequence: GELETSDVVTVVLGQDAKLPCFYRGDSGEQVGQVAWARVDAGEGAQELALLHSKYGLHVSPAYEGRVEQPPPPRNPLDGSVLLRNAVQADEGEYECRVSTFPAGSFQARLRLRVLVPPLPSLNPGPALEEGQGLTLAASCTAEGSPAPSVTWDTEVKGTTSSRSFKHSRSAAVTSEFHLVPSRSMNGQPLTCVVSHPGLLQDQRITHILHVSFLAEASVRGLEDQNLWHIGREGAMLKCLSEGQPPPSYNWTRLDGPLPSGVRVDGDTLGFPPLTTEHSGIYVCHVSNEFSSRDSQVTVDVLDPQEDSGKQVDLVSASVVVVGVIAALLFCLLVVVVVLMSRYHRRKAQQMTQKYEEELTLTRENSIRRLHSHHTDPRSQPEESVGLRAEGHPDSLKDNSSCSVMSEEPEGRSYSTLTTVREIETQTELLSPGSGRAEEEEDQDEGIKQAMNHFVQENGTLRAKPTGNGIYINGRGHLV

human nectin-4 on cells [2] = biological target: T2, human nectin-4 on cells (human, UniProt Q96NY8 32-510); experiment: flow cytometry, SUM190PT cells (high endogenous nectin-4)
T2 construct: also called Nectin-4 receptor
T2 sequence: T1 sequence

human nectin-4 on cells [3] = biological target: T2, human nectin-4 on cells; experiment: flow cytometry, differentiated normal human epidermal keratinocytes (HEKα)
human nectin-4 on cells [4] = biological target: T2, human nectin-4 on cells; experiment: flow cytometry, NCI-H1781 cells (low endogenous nectin-4)
human nectin-4 on cells [5] = biological target: T2, human nectin-4 on cells; experiment: cell-based or functional assay
[6] = biological target: T3, recombinant HIS-tagged human nectin-4 (Acro Biosystems Cat. No. NE4-H52H3) (human, UniProt Q96NY8 32-349); experiment: SPR Biacore 8K+, ADC captured via anti-human Fc, nectin-4 analyte, 37 C;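 also: Nectin-4 injected over captured ADC at 0 to 600 nM for 2 min association, then 10 min dissociation, with a reference flow cell lacking ADC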
T3 construct: Bought protein; not shown: HIS tag
T3 sequence: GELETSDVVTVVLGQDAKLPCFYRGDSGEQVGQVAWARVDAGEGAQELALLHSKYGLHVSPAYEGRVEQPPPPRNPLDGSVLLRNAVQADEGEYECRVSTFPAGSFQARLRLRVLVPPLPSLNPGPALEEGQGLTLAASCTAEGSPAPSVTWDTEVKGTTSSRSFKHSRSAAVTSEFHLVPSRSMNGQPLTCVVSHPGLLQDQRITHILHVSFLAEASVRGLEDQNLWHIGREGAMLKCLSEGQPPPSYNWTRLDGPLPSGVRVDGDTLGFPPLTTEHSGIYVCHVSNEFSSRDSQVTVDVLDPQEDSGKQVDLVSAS

[7] = biological target: T4, recombinant HIS-tagged cyno nectin-4 (Acro Biosystems Cat. No. NE4-C52H4) (cyno, UniProt A0A2K5WES1 32-349); experiment: as above
T4 construct: Bought protein; HIS tag not described
T4 sequence: T3 sequence with V39A, I230V

[8] = biological target: T5, recombinant HIS-tagged rat nectin-4 (R&D Systems Cat. No. 9997-N4-050) (rat, UniProt D3ZET1 31-348); experiment: as above
T5 construct: Bought protein; HIS tag not described
T5 sequence: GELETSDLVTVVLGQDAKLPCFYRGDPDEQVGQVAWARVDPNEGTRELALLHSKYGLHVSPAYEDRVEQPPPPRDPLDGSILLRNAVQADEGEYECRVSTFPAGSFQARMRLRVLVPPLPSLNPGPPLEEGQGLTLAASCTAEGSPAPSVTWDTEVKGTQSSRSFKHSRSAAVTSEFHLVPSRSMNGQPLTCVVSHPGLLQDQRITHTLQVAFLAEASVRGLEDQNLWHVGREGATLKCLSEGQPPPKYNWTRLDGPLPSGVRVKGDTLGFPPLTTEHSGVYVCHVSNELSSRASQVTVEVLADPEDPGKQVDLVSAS

[9] = biological target: T3, recombinant HIS-tagged human nectin-4 …; experiment: SPR Biacore 8K+, ADC captured via anti-human Fc, nectin-4 analyte, 37 C; replicate 2 of 2
[10] = biological target: T3, recombinant HIS-tagged human nectin-4 …; experiment: SPR Biacore 8K+, ADC captured via anti-human Fc, nectin-4 analyte, 37 C; replicate 1 of 2

B1: enfortumab (antibody, V domains shown)
VH: EVQLVESGGGLVQPGGSLRLSCAASGFTFSSYNMNWVRQAPGKGLEWVSYISSSSSTIYYADSVKGRFTISRDNAKNSLSLQMNSLRDEDTAVYYCARAYYYGMDVWGQGTTVTVSS
VL: DIQMTQSPSSVSASVGDRVTITCRASQGISGWLAWYQQKPGKAPKFLIYAASTLQSGVPSRFSGSGSGTDFTLTISSLQPEDFATYYCQQANSFPPTFGGGTKVEIKR
[1]
  % activity (max GFP signal loss compared to enfortumab mAb (100%)): 97%
  EC50 (nM) of nectin-4-eGFP signal loss: 2.13 nM
Human nectin-4 on cells [2]
  % of enfortumab (Average Max MFI): 100%
  Average Max MFI: 1.1e+06 MFI
  EC50: 110 pM
Human nectin-4 on cells [3]
  EC50: 60 pM
Human nectin-4 on cells [4]
  % of enfortumab (Average Max MFI): 100%
  Average Max MFI: 91000 MFI
  EC50: 50 pM

B2: Ab2 (antibody, human IgG1, kappa, L234A L235A, V domains shown)
VH: EVQLVESGGGLVQPGGSLRLSCAASGFTFSSYDMHWVRQATGKGLEWVSAIGTVGDTYYPGSVKGRFTISRENAKNSLYLQMNSLRAGDTAVYYCAREWNGMDVWGQGTTVTVSS
VL: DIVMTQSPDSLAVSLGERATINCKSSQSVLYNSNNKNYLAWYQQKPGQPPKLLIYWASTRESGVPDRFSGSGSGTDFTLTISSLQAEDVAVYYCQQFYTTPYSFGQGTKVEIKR
notes: Unconjugated antibody; also called Antibody 2; nectin-4 antibody Ab2
[1]
  % activity (max GFP signal loss compared to enfortumab mAb (100%)): 113%
  EC50 (nM) of nectin-4-eGFP signal loss: 1.43 nM
Human nectin-4 on cells [2]
  % of enfortumab (Average Max MFI): 87.2%
  Average Max MFI: 920000 MFI
  EC50: 190 pM
Human nectin-4 on cells [3]
  EC50: 50 pM
Human nectin-4 on cells [4]
  % of enfortumab (Average Max MFI): 95.7%
  Average Max MFI: 87000 MFI
  EC50: 60 pM

B3: Ab2 ADC (Ab2 conjugated as in Formula XI, DAR of 8) (antibody, human IgG1, kappa, L234A L235A, V domains shown)
VH: B2 VH
VL: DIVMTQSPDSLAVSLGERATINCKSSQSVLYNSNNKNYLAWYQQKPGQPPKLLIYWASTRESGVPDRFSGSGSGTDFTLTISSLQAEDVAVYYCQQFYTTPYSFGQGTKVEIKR
modifications: camptothecin analog linker-payload of Formula XI on cysteine thiols after full reduction, DAR of 8 per antibody; positions not given
notes: Antibody-drug conjugate of Ab2; also called Ab2 (ADC column)
[1]
  % activity (max GFP signal loss compared to enfortumab mAb (100%)): 132%
  EC50 (nM) of nectin-4-eGFP signal loss: 1.96 nM
Human nectin-4 on cells [5]
  Cytotoxicity IC50, NCI H1781 cells: 47.3 pM
  Cytotoxicity IC50, T24 Nectin-4 clone 108 cells: 70 pM
Human nectin-4 on cells [3]
  EC50: 50 pM
[6]
  Kd: 21000 pM
  koff: 0.0214 s⁻¹
  kon: 1.02e+06 M⁻¹ s⁻¹
[7]
  Kd: 19800 pM
  koff: 0.02 s⁻¹
  kon: 1.01e+06 M⁻¹ s⁻¹
[8]
  Kd: 108000 pM
  koff: 0.0753 s⁻¹
  kon: 695000 M⁻¹ s⁻¹

B4: Ab7 ADC (Ab7 conjugated as in Formula XI, DAR of 8) (antibody, human IgG1, lambda, L234A L235A, V domains shown)
VH: QVQLVQSGAEVKKPGASVKVSCKASGYTFTNYYMHWVRQAPGQGLEWMGIINPSSGSASYAQKFQGRVTMTRDTSTSTVYMELSSLRSEDTAVYYCAREGVGRDILQAFDIWGQGTLVTVSS
VL: QSVLTQPPSVSEAPRQRVTISCSGSSSNIGNNAVNWYQQLPGKAPKLLIYYDDLLPSGVSDRFSGSKSGTSASLAISGLQSEDEADYYCAAWDDSLNGHVFGGGTKLTVLG
modifications: camptothecin analog linker-payload of Formula XI on cysteine thiols after full reduction, DAR of 8 per antibody; positions not given
notes: Antibody-drug conjugate of Ab7; also called Ab7 (ADC column)
[1]
  % activity (max GFP signal loss compared to enfortumab mAb (100%)): 126%
  EC50 (nM) of nectin-4-eGFP signal loss: 2.61 nM
[9]
  Kd: 37600 pM
  koff: 0.0212 s⁻¹
  kon: 564000 M⁻¹ s⁻¹
Human nectin-4 on cells [5]
  Cytotoxicity IC50, NCI H1781 cells: 54.3 pM
  Cytotoxicity IC50, T24 Nectin-4 clone 108 cells: 80.1 pM
[10]
  Kd: 41200 pM
  koff: 0.0243 s⁻¹
  kon: 591000 M⁻¹ s⁻¹
[7]
  Kd: 39200 pM
  koff: 0.0464 s⁻¹
  kon: 1.18e+06 M⁻¹ s⁻¹
[8]
  Kd: 73100 pM
  koff: 0.0296 s⁻¹
  kon: 404000 M⁻¹ s⁻¹
